Laboratory results published in patent US7138262B1, “High mannose proteins and methods of making high mannose proteins” (Shire Human Genetic Therapies, Inc., priority 2000, dated 2006).

B1: GA-GCB from kifunensine treated cells: unpurified gene-activated glucocerebrosidase from HT-1080 cells treated with kifunensine (1 μg/mL) (protein)
chain: ARPCIPKSFGYSSVVCVCNATYCDSFDPPTFPALGTFSRYESTRSGRRMELSMGPIQANHTGTGLLLTLQPEQKFQKVKGFGGAMTDAAALNILALSPPAQNLLLKSYFSEEGIGYNIIRVPMASCDFSIRTYTYADTPDDFQLHNFSLPEEDTKLKIPLIHRALQLAQRPVSLLASPWTSPTWLKTNGAVNGKGSLKGQPGDIYHQTWARYFVKFLDAYAEHKLQFWAVTAENEPSAGLLSGYPFQCLGFTPEHQRDFIARDLGPTLANSTHHNVRLLMLDDQRLLLPHWAKVVLTDPEAAKYVHGIAVHWYLDFLAPAKATLGETHRLFPNTMLFASEACVGSKFWEQSVRLGSWDRGMQYSHSIITNLLYHVVGWTDWNLALNPEGGPNWVRNFVDSPIIVDITKDTFYKQPMFYHLGHFSKFIPEGSQRVGLVASQKNDLDAVALMHPDGSAVVVVLNRSSKDVPLTIKDPAVGFLETISPGYSIHTYLWRRQ
B2: GA-GCB from untreated cells: unpurified gene-activated glucocerebrosidase from HT-1080 cells without drug treatment (protein)
chain: B1 chain
B3: GA-GCB from swainsonine treated cells: unpurified gene-activated glucocerebrosidase from HT-1080 cells treated with swainsonine (1 μg/mL) (protein)
chain: B1 chain
B4: hmGCB: glucocerebrosidase having at least one carbohydrate chain having four or more mannose residues from a precursor oligosaccharide (protein)
chain: B1 chain

System: mouse J774E cells
Assay: Internalization (uptake) of glucocerebrosidase into J774E macrophage cells, with or without mannan
Assay type: cell-based
Conditions: for Glucocerebrosidase Activity, Absolute / Glucocerebrosidase Activity, Background Corrected / uptake of GA-GCB over background: GA-GCB 10 μg/mL; for Glucocerebrosidase Activity, Absolute: 4 hours at 37° C.; for Glucocerebrosidase Activity, Background Corrected / uptake of GA-GCB over background: 4 hours; for Inhibition (%) of uptake by mannan: mannan 2 μg/mL, competitor for the mannose receptor
Experimental: GA-GCB produced in HT-1080 cells was used in an in vitro assay to determine uptake efficiency in a mouse macrophage cell line. The specific objective of the experiment was to determine the absolute and mannose receptor-specific uptake of GA-GCB in mouse J774E cells. One day prior to assay, J774E cells were plated at 50,000 cells/cm^2 in 12 well plates in Growth Medium. For the assay, 0.5 mL of Production Medium (DMEM/F12), 0% calf serum) containing 50 nM vitamin D3 (1,2-5, Dihydroxy vitamin D3) was added to the cells. Unpurified GA-GCB (from harvest 4, Table 1) was added to the test wells at a final concentration of 10 μg/mL in the presence or absence of 2 μg/mL mannan (a competitor for the mannose receptor). Three different forms of GA-GCB were used: GA-GCB from cells treated with kifunensine (1 μg/mL), GA-GCB from cells treated with swainsonine (1 μg/mL), and GA-GCB (1 μg/mL) from untreated cells. Control wells received no GA-GCB. The wells were incubated for 4 hours at 37° C., then washed extensively in buffered saline, scraped into GA-GCB enzyme reaction buffer, passed through 2 freeze/thaw cycles, and clarified by centrifugation. The supernantant was then quantitatively tested for enzyme activity and total protein. Internalization of GA-GCB into mouse J744E cells is shown in Table 2 and is reported as Units/mg of cell lysate. […] Thus, the inhibition of intracellular mannosidases by either kifunensine or swainsonine results in GA-GCB that can be transported into cells efficiently via the mannose receptor, with kifunensine causing an approximately 2-fold greater uptake than swainsonine. Improvement in targeting of GA-GCB to cells via mannose receptors can therefore be optimized by production of GA-GCB in the presence of kifunensine or swainsonine.

Row | Molecule | Glucocerebrosidase Activity, Absolute (+ mannan 2 μg/mL) | Glucocerebrosidase Activity, Absolute (without mannan) | Glucocerebrosidase Activity, Background Corrected (+ mannan 2 μg/mL) | Glucocerebrosidase Activity, Background Corrected (without mannan) | uptake of GA-GCB over background (without mannan) | Inhibition (%) of uptake by mannan | hmGCB uptake by macrophages compared to uptake of GCB secreted from cells (summary statement)
1 | B1 | 2977 Units/mg cell lysate | 9185 Units/mg cell lysate | 2322 Units/mg cell lysate | 8530 Units/mg cell lysate | 14 fold | 73% | –
2 | B2 | 1678 Units/mg cell lysate | 2816 Units/mg cell lysate | 1023 Units/mg cell lysate | 2161 Units/mg cell lysate | approximately 3 fold | 53% | –
3 | B3 | 2036 Units/mg cell lysate | 4787 Units/mg cell lysate | 1381 Units/mg cell lysate | 4132 Units/mg cell lysate | 7 fold | 67% | –
4 | B4 | – | – | – | – | – | – | increased
